Where a chain is given by its changes, count along the chain named.
T1: human Adhesion G protein-coupled receptor E2 (ADGRE2) (human, UniProt Q9UHX3 24-823)
T1 construct: No signal peptide limits are stated; also called EMR2; CD312
T1 sequence: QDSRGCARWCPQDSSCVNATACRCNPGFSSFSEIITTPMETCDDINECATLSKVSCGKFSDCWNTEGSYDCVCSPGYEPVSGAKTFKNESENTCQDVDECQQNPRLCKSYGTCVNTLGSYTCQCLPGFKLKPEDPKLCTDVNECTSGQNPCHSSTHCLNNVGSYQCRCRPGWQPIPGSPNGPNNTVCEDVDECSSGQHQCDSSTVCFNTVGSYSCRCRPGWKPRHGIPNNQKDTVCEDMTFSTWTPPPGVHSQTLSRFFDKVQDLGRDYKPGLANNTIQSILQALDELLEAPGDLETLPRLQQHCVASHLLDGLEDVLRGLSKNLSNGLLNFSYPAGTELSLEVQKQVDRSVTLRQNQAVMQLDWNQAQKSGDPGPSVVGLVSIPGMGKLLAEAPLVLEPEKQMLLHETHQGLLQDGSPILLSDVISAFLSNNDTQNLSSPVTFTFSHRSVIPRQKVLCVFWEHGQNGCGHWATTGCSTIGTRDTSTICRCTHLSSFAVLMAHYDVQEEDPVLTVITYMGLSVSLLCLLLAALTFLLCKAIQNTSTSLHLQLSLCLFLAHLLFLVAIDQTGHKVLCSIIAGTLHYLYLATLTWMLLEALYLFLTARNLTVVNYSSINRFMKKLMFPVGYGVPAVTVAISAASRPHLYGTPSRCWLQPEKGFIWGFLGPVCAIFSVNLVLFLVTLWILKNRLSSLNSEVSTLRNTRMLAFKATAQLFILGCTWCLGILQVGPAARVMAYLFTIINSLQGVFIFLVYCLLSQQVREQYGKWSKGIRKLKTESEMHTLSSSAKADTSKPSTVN

T2: ADGRE3 (human, UniProt Q9BY15 22-652)
T2 construct: whole, on cells
T2 sequence (looked up): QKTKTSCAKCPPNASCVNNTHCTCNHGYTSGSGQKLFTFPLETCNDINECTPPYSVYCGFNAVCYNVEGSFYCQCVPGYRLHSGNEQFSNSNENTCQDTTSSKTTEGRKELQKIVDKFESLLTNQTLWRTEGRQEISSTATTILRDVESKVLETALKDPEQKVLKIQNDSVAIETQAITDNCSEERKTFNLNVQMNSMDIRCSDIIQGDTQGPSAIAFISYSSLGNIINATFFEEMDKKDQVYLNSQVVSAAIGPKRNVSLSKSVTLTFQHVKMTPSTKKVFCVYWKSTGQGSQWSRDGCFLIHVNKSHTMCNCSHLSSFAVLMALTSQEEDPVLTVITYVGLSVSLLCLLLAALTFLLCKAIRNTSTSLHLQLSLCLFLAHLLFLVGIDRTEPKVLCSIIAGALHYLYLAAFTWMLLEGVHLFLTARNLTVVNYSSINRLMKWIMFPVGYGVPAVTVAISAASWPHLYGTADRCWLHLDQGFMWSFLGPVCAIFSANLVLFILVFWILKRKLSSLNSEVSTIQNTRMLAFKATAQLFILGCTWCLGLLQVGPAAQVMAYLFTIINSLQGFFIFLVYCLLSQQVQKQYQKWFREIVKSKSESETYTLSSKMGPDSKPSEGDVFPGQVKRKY

T3: ADGRE5 (human, UniProt P48960 21-835)
T3 construct: whole, on cells
T3 sequence (looked up): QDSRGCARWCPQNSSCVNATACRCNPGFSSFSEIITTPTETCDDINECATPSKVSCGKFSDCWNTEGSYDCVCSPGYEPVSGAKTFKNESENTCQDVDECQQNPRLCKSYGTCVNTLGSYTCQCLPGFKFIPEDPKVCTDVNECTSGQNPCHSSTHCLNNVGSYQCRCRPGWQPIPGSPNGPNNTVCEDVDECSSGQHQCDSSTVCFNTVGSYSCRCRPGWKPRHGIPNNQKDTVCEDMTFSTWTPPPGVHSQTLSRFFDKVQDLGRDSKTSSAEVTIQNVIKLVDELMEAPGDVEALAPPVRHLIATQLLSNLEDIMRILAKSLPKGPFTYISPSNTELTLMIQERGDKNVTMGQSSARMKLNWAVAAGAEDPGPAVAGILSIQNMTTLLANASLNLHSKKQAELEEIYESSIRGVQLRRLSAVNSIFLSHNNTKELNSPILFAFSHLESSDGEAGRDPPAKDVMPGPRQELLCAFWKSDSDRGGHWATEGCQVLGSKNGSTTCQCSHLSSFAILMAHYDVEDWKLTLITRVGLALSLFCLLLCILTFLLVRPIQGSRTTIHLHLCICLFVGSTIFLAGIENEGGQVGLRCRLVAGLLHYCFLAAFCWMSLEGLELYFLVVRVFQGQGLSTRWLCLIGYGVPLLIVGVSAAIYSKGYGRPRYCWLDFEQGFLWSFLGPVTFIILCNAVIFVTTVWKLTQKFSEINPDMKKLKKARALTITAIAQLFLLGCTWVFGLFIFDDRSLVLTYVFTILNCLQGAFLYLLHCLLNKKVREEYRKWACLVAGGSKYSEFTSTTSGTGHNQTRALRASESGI

T4: ADGRE1 (human, UniProt Q14246 21-886)
T4 construct: whole, on cells
T4 sequence (looked up): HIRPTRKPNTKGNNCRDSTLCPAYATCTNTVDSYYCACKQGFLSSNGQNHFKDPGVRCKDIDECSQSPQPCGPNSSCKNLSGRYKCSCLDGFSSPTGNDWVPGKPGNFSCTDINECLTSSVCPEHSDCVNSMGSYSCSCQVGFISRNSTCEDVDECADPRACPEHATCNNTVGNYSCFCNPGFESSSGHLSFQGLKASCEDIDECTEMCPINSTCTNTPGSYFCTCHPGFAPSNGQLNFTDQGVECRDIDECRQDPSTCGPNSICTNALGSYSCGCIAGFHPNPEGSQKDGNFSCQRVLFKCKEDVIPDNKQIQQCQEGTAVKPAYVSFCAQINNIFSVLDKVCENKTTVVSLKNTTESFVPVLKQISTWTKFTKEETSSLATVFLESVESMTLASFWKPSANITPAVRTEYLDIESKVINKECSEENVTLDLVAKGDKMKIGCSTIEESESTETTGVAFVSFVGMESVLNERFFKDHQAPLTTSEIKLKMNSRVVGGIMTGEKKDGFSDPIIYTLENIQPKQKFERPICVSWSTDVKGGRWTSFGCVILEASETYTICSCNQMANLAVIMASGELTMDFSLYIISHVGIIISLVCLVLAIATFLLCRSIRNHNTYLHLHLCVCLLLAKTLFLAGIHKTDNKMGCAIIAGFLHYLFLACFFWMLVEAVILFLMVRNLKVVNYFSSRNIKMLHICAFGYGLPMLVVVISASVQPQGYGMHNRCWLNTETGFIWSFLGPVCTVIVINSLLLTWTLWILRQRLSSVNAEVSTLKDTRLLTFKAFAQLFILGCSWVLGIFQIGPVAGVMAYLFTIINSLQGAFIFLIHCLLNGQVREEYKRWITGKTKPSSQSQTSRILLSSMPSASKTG

B1: ADGRE2-C scFv (scFv)
scFv: QVQLQQSGAEVKKPGASVKLSCKASGYTFTNYWMQWVRQAPGQGLEWIGAVYPGDGDTRYTQKFQGRATLTADTSTSTVYMEVSSLRSEDTAVYYCARGFTAYGMDYWGQGTTVTVSSGGGGSGGGGSGGGGSEIVLTQSPATMSASPGERVTMSCSASSSVSYMHWYQQKSGLSPKRWIYDTSKLASGVPDRFSGSGSGTDYTFTISRMEPEDFATYYCQQWSSNPLTFGGGTKLEIK
notes: Recombinant humanized scFv; Any tag is not described
B2: ADGRE2-B scFv (scFv)
scFv: B1 scFv with V37I, T76I, V79A, S85R, E89D
notes: as for B1
B3: ADGRE2-F scFv (scFv)
scFv: B1 scFv with V37I, V79A, M144L, S172P, S175A, K177R
notes: as for B1
B4: ADGRE2-A scFv (scFv)
scFv: QVQLQQSGAEVAKPGASVKLSCKASGYTFTNYWMQWIKQAPGQGLEWIGAVYPGDGDTRHTQKFKGKATLTADKSTSTAYMEVSSLRSEDTAVYYCARGFTAYGMDYWGQGTTVTVSSGGGGSGGGGSGGGGSEIVLTQSPATMSASPGERVTMSCSASSSVSYMHWYQQKSGQSPKRWIYDTSKLASGVPARFSGSGSGTDYTFTISSMEPEDFATYYCQQWSSNPLTFGGGTKLEIK
notes: as for B1
B5: ADGRE2 scFv-Fc (purified recombinant ADGRE2-A scFv fused to Fc) (Fc fusion)
chain: B4 scFv
notes: also called ADGRE2 scFv (ADGRE2-A); not shown: Fc part (and any linker) of the scFv-Fc is not described
B6: ADGRE2-D scFv (scFv)
scFv: QVQLQQSGAEVKKPGASVKVSCKASGYTFTNYWMQWVRQAPGQGLEWMGAVYPGDGDTRHTQKFKGRVTMTRDTSTSTVYMELSSLRSEDTAVYYCARGFTAYGMDYWGQGTLVTVSSASTGGGGSGGGGSGGGGSEIVLTQSPATLSLSPGERATLSCSASSSVSYMHWYQQKPGLAPRLLIYDTSKLASGIPDRFSGSGSGTDFTLTISRLEPEDFAVYYCQQWSSNPLTFGQGTKVEIK
notes: as for B1
B7: ADGRE2-E scFv (scFv)
scFv: QVQLQQSGAEVKKPGASVKVSCKASGYTFTNYWMQWVRQAPGQGLEWIGAVYPGDGDTRHTQKFKGRVTMTADKSTSTVYMELSSLRSEDTAVYYCARGFTAYGMDYWGQGTLVTVSSASTGGGGSGGGGSGGGGSQIVLTQSPATLSLSPGERATLTCSASSSVSYMHWYQQKPGLSPKRWIYDTSKLASGVPDRFSGSGSGTDYTFTIRRLEPEDFATYYCQQWSSNPLTFGQGTKVEIK
notes: as for B1

Columns and labels:
[1] = target: T1, human Adhesion G protein-coupled …; assay: flow cytometry, scFv titration on EL4 cells overexpressing ADGRE2
Experimental: This example illustrates the on-cell binding for the anti-ADGRE2 scFvs as measured by flow cytometry. The on-cell binding for the anti-ADGRE2 scFvs was assessed by flow cytometry on the E4 cells overexpressing ADGRE2. Each of the scFvs were tested for binding to ADGRE2 and compared to the Reference 1 mAb. Briefly, 100,000 cells per well, were plated in 96 well V bottom plate, scFvs were diluted to 200 nMscFv then 1:4 serially down to 0.01 nM. A dose dependent titration of the scFvs validated recombinant scFvs folding and binding to ADGRE2. EC₅₀ affinities were compared in order to better interpret any differences seen in-vivo that might be caused by variations in affinities resulting from the humanization process Data was analyzed using Prism software, using a four parameter regression. The approximate EC₅₀ values were determined using equation: Y=Bottom+(Top−Bottom)/(1+10\hat{ }((Log EC₅₀−X)*HillSlope)) where the fitted parameters are defined as follows: Bottom, the lower plateau describing minimum binding achievable; Top, the upper plateau describing the maximum binding achievable; Log EC50, the inflection point of the dose response curve also known as the concentration producing a half-maximal response; and Hill-Slope, the slope of the dose response curve.

ADGRE3 = target: T2, ADGRE3; assay: cell microarray screen on HEK293 cells overexpressing human membrane proteins
Experimental: (§1) The off-target binding interactions of ADGRE2 scFv (ADGRE2-A) and CLEC12A scFv (CLEC12A-A) to human plasma membrane proteins were carried out in a 4-phase approach: (1) pre-screening to determine the optimal concentrations of purified recombinant ADGRE2 scFv-Fc and CLEC12A scFv-Fc test proteins for the screening; (2) screening for binding of the test proteins against fixed HEK293 cells overexpressing 5,474 full-length human plasma membrane proteins and cell surface tethered human secreted proteins and 371 human cell surface heterodimers, which identified library hits; (3) confirmatory/specific screens using fixed-cell and live-cell microarrays; (4) flow cytometry-based follow-on study to investigate further identified test protein-specific interactions on live cells; and (5) cell-to-cell binding assays to confirm positive hits. The table below summarizes the off-binding data for ADGRE2 scFv and CLEC12A scFv.

ADGRE5 = target: T3, ADGRE5; assay: as above
Experimental: as §1

ADGRE1 = target: T4, ADGRE1; assay: as above
Experimental: as §1

Binder | EC50 [1] | other results
B1 | 53.2 nM | –
B2 | 55.3 nM | –
B3 | 16.4 nM | –
B4 | 93.8 nM | –
B5 | – | binding result (ADGRE3): no binding; binding result (ADGRE5): no binding; binding result (ADGRE1): no binding
B6 | 16.4 nM | –
B7 | 10.6 nM | –

Source: US20220363775A1 (Memorial Sloan Kettering, published 2022)
